Measured values taken from IntAct's records for PubMed 17571076.

B1: Mitochondrial protein import protein ZIM17 (Saccharomyces cerevisiae), P42844 (parent)
chain: MIPRTRTLLQSKIPITRYFARCWAPRVRYNVCRTLPAAALHTNIIAHNEVKKDDKKVHLGSFKVDKPKMMIAFTCKKCNTRSSHTMSKQAYEKGTVLISCPHCKVRHLIADHLKIFHDHHVTVEQLMKANGEQVSQDVGDLEFEDIPDSLKDVLGKYAKNNSENASQLPHPSQK

Variants of: B1
Conditions: with hsp77_yeasx SSC1, P0CS91
Sequence of hsp77_yeasx SSC1, P0CS91 (P0CS91 whole entry): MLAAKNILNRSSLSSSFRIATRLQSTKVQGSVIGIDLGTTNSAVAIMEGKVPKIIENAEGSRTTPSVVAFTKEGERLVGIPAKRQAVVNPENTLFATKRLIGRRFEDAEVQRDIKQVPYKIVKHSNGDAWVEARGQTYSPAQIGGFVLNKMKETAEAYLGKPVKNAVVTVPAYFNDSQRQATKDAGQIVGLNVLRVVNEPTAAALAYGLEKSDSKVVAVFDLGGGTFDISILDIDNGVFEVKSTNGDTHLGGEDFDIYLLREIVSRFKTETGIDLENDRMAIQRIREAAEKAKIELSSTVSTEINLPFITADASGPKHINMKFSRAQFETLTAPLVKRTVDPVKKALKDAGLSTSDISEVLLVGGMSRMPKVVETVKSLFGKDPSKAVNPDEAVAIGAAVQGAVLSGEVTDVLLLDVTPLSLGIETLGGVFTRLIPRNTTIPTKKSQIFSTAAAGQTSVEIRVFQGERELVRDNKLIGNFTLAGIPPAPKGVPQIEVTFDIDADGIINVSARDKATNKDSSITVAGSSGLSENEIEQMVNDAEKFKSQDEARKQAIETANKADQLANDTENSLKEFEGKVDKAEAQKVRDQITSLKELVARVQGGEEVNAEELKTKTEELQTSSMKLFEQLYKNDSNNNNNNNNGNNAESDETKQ

effect of a mutation on the interaction | Variant
disrupting interaction | MIPRTRTLLQSKIPITRYFARCWAPRVRYNVCRTLPAAALHTNIIAHNEVKKDDKKVHLGSFKVDKPKMMIAFTCKKCNTRSSHTMSKQAYEKGTVLISCPHCKVAHLIADHLKIFHDHHVTVEQLMKANGEQVSQDVGDLEFEDIPDSLKDVLGKYAKNNSENASQLPHPSQK [R106A]
disrupting interaction | MIPRTRTLLQSKIPITRYFARCWAPRVRYNVCRTLPAAALHTNIIAHNEVKKDDKKVHLGSFKVDKPKMMIAFTCKKCNTRSSHTMSKQAYEKGTVLISCPHCKVRALIADHLKIFHDHHVTVEQLMKANGEQVSQDVGDLEFEDIPDSLKDVLGKYAKNNSENASQLPHPSQK [H107A]

Variants of: B1
Conditions: with hsp77_yeasx SSC1, P0CS91
Remark: another data set of the same source

effect of a mutation on the interaction | Variant
disrupting interaction | MIPRTRTLLQSKIPITRYFARCWAPRVRYNVCRTLPAAALHTNIIAHNEVKKDDKKVHLGSFKVDKPKMMIAFTCKKCNTRSSHTMSKQAYEKGTVLISCPHCKVRHLIAAHLKIFHDHHVTVEQLMKANGEQVSQDVGDLEFEDIPDSLKDVLGKYAKNNSENASQLPHPSQK [D111A]
